In patent US20210238282A1 (AMPSOURCE BIOPHARMA SHANGHAI, published 2021):
Residue numbers refer to the chain shown, from its start. Names and notes keep the numbering of the source. One block for each binder: values may come before it.

Key:
[1] = biological target: T1, human TIM-3 antigen (His-tagged TIM-3 extracellular domain expressed by Ampsource Biopharma Shanghai Inc.) (human, UniProt Q8TDQ0 22-202); experiment: BLI (ForteBio Octet) as stated; antibody captured by anti-human IgG Fc, antigen in solution, 1:1 model
T1 construct: extracellular domain; also called TIM-3-His; not shown: His tag

[2] = biological target: T1, human TIM-3 antigen (His-tagged TIM-3 …); experiment: BLI (ForteBio Octet) as stated; antigen in solution, 1:1 model; capture of the murine antibody not described
[3] = biological target: T1, human TIM-3 antigen (His-tagged TIM-3 …); experiment: ELISA, plate coated with His-tagged human TIM-3 ECD, goat anti-mouse IgG-HRP
[4] = biological target: T2, human TIM-1 (Sino Biological Inc., catalog No. 11051-H08H1) (human, UniProt Q96D42 21-290); experiment: ELISA, plate coated with human TIM-1 at 1 ug/mL, detection with HRP-labeled goat anti-human IgG
T2 construct: Bought protein
T2 sequence (looked up): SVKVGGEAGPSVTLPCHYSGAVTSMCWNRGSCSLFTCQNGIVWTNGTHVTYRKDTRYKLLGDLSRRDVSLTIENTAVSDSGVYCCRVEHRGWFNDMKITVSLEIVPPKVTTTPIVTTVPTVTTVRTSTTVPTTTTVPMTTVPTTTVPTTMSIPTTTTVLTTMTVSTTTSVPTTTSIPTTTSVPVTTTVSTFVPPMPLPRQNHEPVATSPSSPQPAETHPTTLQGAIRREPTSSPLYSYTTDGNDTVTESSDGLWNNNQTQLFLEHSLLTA

[5] = biological target: T3, human TIM-4 (Sino Biological Inc., catalog No. 12161-H08H) (human, UniProt Q96H15 25-315); experiment: ELISA, plate coated with human TIM-4 at 1 ug/mL, detection with HRP-labeled goat anti-human IgG
T3 construct: Bought protein
T3 sequence (looked up): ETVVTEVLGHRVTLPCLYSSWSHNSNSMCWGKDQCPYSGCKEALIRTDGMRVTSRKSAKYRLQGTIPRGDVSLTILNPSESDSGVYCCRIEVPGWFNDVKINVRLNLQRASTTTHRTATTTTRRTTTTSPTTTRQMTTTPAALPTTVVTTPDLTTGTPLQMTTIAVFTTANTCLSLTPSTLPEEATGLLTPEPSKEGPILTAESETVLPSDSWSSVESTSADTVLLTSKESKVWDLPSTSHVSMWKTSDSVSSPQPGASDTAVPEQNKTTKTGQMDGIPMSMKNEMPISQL

[6] = biological target: T4, TIM3-Euk (TIM-3 reagent of the TIM-3/Gal9 binding assay kit) (UniProt Q8TDQ0 22-200, limits assumed, europium cryptate label (Euk), position not stated); experiment: HTRF competition, blocking of TIM-3/Galectin-9 binding (competitor: Tag-Gal9)
T4 construct: Kit reagent

[7] = biological target: T1, human TIM-3 antigen (His-tagged TIM-3 …); experiment: direct ELISA with HRP-labeled AB12S3, plate coated with human TIM-3 at 1 ug/mL
[8] = biological target: T1, human TIM-3 antigen (His-tagged TIM-3 …); experiment: ELISA, plate coated with His-tagged human TIM-3 extracellular domain
[9] = biological target: T5, mouse TIM-3 protein (Sino Biological Inc., catalog No. 51152-M08H) (mouse, UniProt Q8VIM0 20-191); experiment: direct ELISA with HRP-labeled AB12S3, plate coated with mouse TIM-3 at 1 ug/mL
T5 construct: Bought protein; also called murine TIM-3

[10] = biological target: TIM-3 (His-tagged, used in the TIM-3/PtdSer competitive ELISA) (UniProt Q8TDQ0 22-200, limits assumed); experiment: competitive ELISA, plate coated with PtdSer (phosphatidylserine, not a protein), His-tagged TIM-3 in solution with antibody, anti-6xHis-HRP
[11] = biological target: monkey TIM-3 (Sino Biological Inc., catalog No. 90312-C02H) (monkey); experiment: direct ELISA with HRP-labeled AB12S3, plate coated with monkey TIM-3 at 1 ug/mL

Kd [1]: 4.38 pM
koff [1]: 8.68e-07 s⁻¹
kon [1]: 198000 M⁻¹ s⁻¹
B1: humanized anti-TIM-3 antibody AB12S6 (antibody, V domains shown)
VH: QVQLQLSGAEVKKPGASVKVSCKASGYTFTNYVMHWVRQAPGQRLEWMGWIDPDNDGIKYSQKFQGRVTLTSDKSASTAYMELSSLRSEDTAVYYCARDFGYVDWFPYWGQGTLVTVSS
VL: DIQMTQSPSSMSASVGDRVTITCQASQDVTTALNWYQQKPGKSPKLLIYSASNLETGVPSRFSGSGSGTDFTFTISSLQPEDIATYYCQQHYSIPPTFGGGTNLEIK

Kd [1]: 4.82 pM
koff [1]: 6.32e-07 s⁻¹
kon [1]: 131000 M⁻¹ s⁻¹
B2: humanized anti-TIM-3 antibody AB12S5 (antibody, V domains shown)
VH: B1 VH with Q5V, L6Q, L70I, S72R, K74T, L114T
VL: B1 VL with M11L, S43A, N103K, L104V
notes: it was captured through anti-human IgG Fc

Kd [1]: 3.44 pM
koff [1]: 7.66e-07 s⁻¹
kon [1]: 223000 M⁻¹ s⁻¹
B3: humanized anti-TIM-3 antibody AB12S7 (antibody, V domains shown)
VH: B1 VH with Q1E, V37M, A40K, L70I, S72R, A76S
VL: B1 VL with Q3V, M11L, P40S, K42Q

Kd [2]: < 1 pM
koff [2]: < 1e-07 s⁻¹
kon [2]: 345000 M⁻¹ s⁻¹
EC50 [3]: 0.0063 µg/mL
B4: murine monoclonal antibody Mab22 (antibody, mouse IgG1, V domains shown)
VH: EVQLQLSGPELVKPGASVKMSCKASGYTFTNYVMHWMRQKPGQGLEWIGYIDPDNDGIKYNEKIKGKATLTSDKSSSTAYMELSSLTSEDSAVYYCARDFGYVDWFPYWGQGTLVTVSA
VL: DIVMTQSHKFMSTSVGNRVSITCKASQDVTTAVAWYQQKSGQSPKLLIYSASNRYIGVPDRFTGSGSGTDFTFTISSVQTEDLAVYYCQQHYSIPPTFGGGTNLEIK
notes: subtype identified as murine IgG1 (Kappa); purified from hybridoma supernatant on protein G; also called antibody secreted by hybridoma clone #22; murine antibody Mab22

binding result [4]: no binding (tested: 10000 ng/mL)
binding result [5]: no binding (tested: 10000 ng/mL)
IC50 [6]: 0.202 µg/mL
Kd [1]: 2.71 pM
EC50 (read off the curve) [7]: ~0.008 µg/mL
EC50 (read off the curve) [8]: ~0.004 µg/mL
binding result [9]: no binding (tested: 10000 ng/mL)
IC50 [10]: 1.33 µg/mL
EC50 (read off the curve) [11]: 0.05 µg/mL
B5: humanized anti-TIM-3 antibody AB12S3 (antibody, human IgG4 S228P, kappa, V domains shown)
VH: EVQLVQSGAEVKKPGASVKVSCKASGYTFTNYVMHWMRQAPGQRLEWIGYIDPDNDGIKYNEKIKGKATLTSDKSSSTAYMELSSLRSEDTAVYYCARDFGYVDWFPYWGQGTTVTVSS
VL: DIVMTQSPSSLSASVGDRVTITCKASQDVTTAVAWYQQKPGKAPKLLIYSASNRYIGVPDRFTGSGSGTDFTFTISSLQPEDIATYYCQQHYSIPPTFGGGTKVEIKR
notes: Human IgG4 S228P (EU) heavy chain and human kappa light chain

Kd [1]: < 1 pM
koff [1]: < 1e-07 s⁻¹
kon [1]: 254000 M⁻¹ s⁻¹
EC50 (read off the curve) [8]: ~0.004 µg/mL
B6: humanized anti-TIM-3 antibody AB12S4 (antibody, human IgG4 S228P, kappa, V domains shown)
VH: B5 VH with Q6L, K12V, V20M, A40K, T91S
VL: B5 VL with L11M, A13T, A43S, L78V, T85V, K103N, V104L
notes: as for B5

IC50 [6]: 0.259 µg/mL
EC50 (read off the curve) [8]: ~0.003 µg/mL
IC50 [10]: 3.2 µg/mL
B7: control antibody AB12S1 (antibody, human IgG1, kappa, N297A, V domains shown)
VH: QVQLQQPGAELVKPGASVKMSCKASGYTFTSYNMHWIKQTPGQGLEWIGDIYPGNGDTSYNQKFKGKATLTADKSSSTVYMQLSSLTSEDSAVYYCARVGGAFPMDYWGQGTSVTVSS
VL: DIVLTQSPASLAVSLGQRATISCRASESVEYYGTSLMQWYQQKPGQPPKLLIYAASNVESGVPARFSGSGSGTDFSLNIHPVEEDDIAIYFCQQSRKDPSTFGGGTKLEIKR
notes: Variable regions derived from anti-TIM-3 antibody ABTIM3 of U.S. Pat. No. 9,605,070; also called positive control antibody AB12S1
